Assay results from patent US20240376155A1, “NOVEL COMPOUNDS AND COMPOSITIONS FOR TARGETED THERAPY OF RENAL CANCERS” (SHANGHAI MICURX PHARMACEUTICAL CO., LTD., priority 2021, published 2024).
Read-outs that look alike come from different tables or passages of the source. Bridge positions count the residues as written; N and C are the ends. Square brackets hold non-standard residues; d marks the D form. Peptide text beside a SMILES is read from it. * marks the point of attachment. ξ: configuration not given here. X1 = CNC(=O)c1ccccc1Sc1ccc2c(/C=C/c3ccccn3)nn(C(=O)N(CCNC(=O)[C@@H](N)CCC(=O)O)CCC(=O)*)c2c1; X3 = CNC(=O)c1ccccc1Sc1ccc2c(/C=C/c3ccccn3)nn(C(=O)N(CCOC(=O)[C@@H](N)CCC(=O)O)CCC(=O)*)c2c1; X2 = CNC(=O)c1ccccc1Sc1ccc2c(/C=C/c3ccccn3)nn(C(=O)N(CCNC(=O)CC[C@H](N)C(=O)O)CCC(=O)*)c2c1; Thr(3ξ) = CC(O)[C@H](N)C(=O)O; Dab = NCC[C@H](N)C(=O)O; ξL = CC(C)CC(N)C(=O)O

Columns and labels:
[1] = for Blood Plasma Conc. of released axitinib / Kidney Tissue Conc. of released axitinib / Blood Plasma Conc. of axitinib: mouse; for Blood Plasma Conc. of released axitinib / Kidney Tissue Conc. of released axitinib: injection, single dose 3 mg/kg; for Kidney Tissue Conc. of released axitinib: corrected for kidney tissue density; for axitinib level in kidney tissues vs from axitinib itself: 3 mg/kg compound vs 30 mg/kg oral axitinib; for Blood Plasma Conc. of axitinib: oral gavage, single dose 30 mg/kg
in vivo = details: mouse, 3 mg/kg; for level at 3 h: iv
Text: Preferential accumulation of compounds provided herein in kidneys (or near the site of a kidney cancer) may be evaluated by pharmacokinetic (PK) tests, such as in a standard rat PK test.

HK-2 cell line = assay: HK-2 cytotoxicity assay; assay type: cell-based, human
Text: The assay is analogously to that described, for example, by Keirstead et al. in Toxicol. Sci. 2014, vol. 137, pp. 278-291.

[2] = 14-days repeat-dose mouse tolerability test; assay type: in vivo; details: dose of at least 18 mg/kg/day
[3] = In vitro antibacterial activity (MIC); assay type: cell-based; details: relative to polymyxin antibiotics such as polymyxin B and colistin
[4] = test system: luciferase-expressing A498 renal cancer cell line (A498-luc); details: 12 mg/kg/day ip vs axitinib at 30 mg/kg/day
Description: An illustrative efficacy study for the compounds described herein was investigated in an orthotopic mouse model. In this model, a luciferase-expressing A498 renal cancer cell line (A498-luc) was used. The cancer cells were implanted into a kidney capsule and the tumor growth and effect were monitored by the image size using IVIS Lumina III (Perkin Elmer) and mouse body weight changes. Specifically, mice were anesthetized by SC injection of Zolet™ m 50 (Virbac S. A.) after 24 h fasting. The skin of anesthetized mice was sterilized with iodine followed by alcohol. 4×10^6 luciferase-expressing A498-luc cells were implanted in the left kidney by insulin syringe. The skin incisions were closed with autosuture clip. The tumor growths were monitored by image analysis. […] At 10 mins after the luciferin injection, the mice were imaged (once a week). Living image software (Perkin Elmer) is used to compute regions of interest (ROI) and integrate the total bioluminescence signal in each ROI. Bioluminescent signals (photos/s) from ROI were quantified and used as an indicator of tumor growth and antitumor activity. Body weight of all mice were measured twice a week throughout the study.

[5] = axitinib therapy, human use; cited from earlier work

Question: Which results are given for CNC(=O)c1ccccc1Sc1ccc2c(/C=C/c3ccccn3)nn(C(=O)N(CCNC(=O)[C@@H](N)CCC(=O)O)CCC(=O)N[C@H]3CCNC(=O)[C@H]([C@@H](C)O)NC(=O)[C@H](CCN)NC(=O)[C@H](CCN)NC(=O)C(CC(C)C)NC(=O)[C@@H](Cc4ccccc4)NC(=O)[C@H](CCN)NC3=O)c2c1 (stereo partly shown) [Example 2] (X1-[Dab][Dab][dF][ξL][Dab][Dab]T; lactam 1-C)?
Answer: Blood Plasma Conc. of released axitinib ([1]; T = 3 h): T = 3 h: 3.3 ng/mL; Kidney Tissue Conc. of released axitinib ([1]; T = 3 h): T = 3 h: 5140 ng/mL; Blood Plasma Conc. of released axitinib ([1]; T = 6 h): T = 6 h: BLQ; Kidney Tissue Conc. of released axitinib ([1]; T = 6 h): T = 6 h: 4630 ng/mL

Question: Which “Kidney-to-Blood Conc. Ratio” value (in vivo; T = 3 h after injection) does the source give for CNC(=O)c1ccccc1Sc1ccc2c(/C=C/c3ccccn3)nn(C(=O)N(CCNC(=O)[C@@H](N)CCC(=O)O)CCC(=O)N[C@H](C(=O)N[C@@H](CCN)C(=O)N[C@H]3CCNC(=O)[C@H](C(C)O)NC(=O)[C@H](CCN)NC(=O)[C@H](CCN)NC(=O)[C@H](CC(C)C)NC(=O)[C@@H](Cc4ccccc4)NC(=O)[C@H](CCN)NC3=O)C(C)O)c2c1 (stereo partly shown) [Example 1] (X1-[Thr(3ξ)][Dab][Dab][Dab][dF]L[Dab][Dab][Thr(3ξ)]; lactam 3-C) here?
Answer: The value was 63.

Question: And the level at 3 h (in vivo; kidney)?
Answer: The level at 3 h was 563 ng/mL.

Question: And the level at 3 h (in vivo; plasma)?
Answer: Its level at 3 h is 9 ng/mL.

Question: What about the “In vitro human HK-2 assay IC50” value (HK-2 cell line; HK-2 immortalized proximal tubule cells from normal human kidney) of the same molecule?
Answer: The value was greater than 100 µg/mL.

Question: What about the “fold less active than axitinib in HK-2 cytotoxicity assay” value (HK-2 cell line; vs axitinib (free drug form)) of the same molecule?
Answer: Its value is 2-3 fold.

Question: What about the tolerability [2] of the same molecule?
Answer: The tolerability was “well-tolerated”.

Question: What about the “antibacterial activity (MIC, minimum inhibitory concentration)” value [3] of the same molecule?
Answer: The value was “minimized antibacterial activity”.

Question: What about the “axitinib level in kidney tissues vs from axitinib itself” value ([1]; at 3 h) of the same molecule?
Answer: Its value is 6.50 fold.

Question: What about the “axitinib level in kidney tissues vs from axitinib itself” value ([1]; at 6 h) of the same molecule?
Answer: Its value is “about 15 fold”.

Question: And the “Blood Plasma Conc. of released axitinib” value ([1]; T = 3 h)?
Answer: The value was “T = 3 h: 9.7 ng/mL”.

Question: And the “Kidney Tissue Conc. of released axitinib” value ([1]; T = 3 h)?
Answer: The value was “T = 3 h: 1955.3 ng/mL”.

Question: What about the “Blood Plasma Conc. of released axitinib” value ([1]; T = 6 h) of the same molecule?
Answer: The value was “T = 6 h: 4.0 ng/mL”.

Question: What about the “Kidney Tissue Conc. of released axitinib” value ([1]; T = 6 h) of the same molecule?
Answer: Its value is “T = 6 h: 1448.5 ng/mL”.

Question: What about the “Blood Plasma Conc. of released axitinib” value ([1]; T = 12 h) of the same molecule?
Answer: Its value is “T = 12 h: BLQ”.

Question: And the “Kidney Tissue Conc. of released axitinib” value ([1]; T = 12 h)?
Answer: The value was “T = 12 h: 1437.9 ng/mL”.

Question: What about the “Blood Plasma Conc. of released axitinib” value ([1]; T = 24 h) of the same molecule?
Answer: Its value is “T = 24 h: BLQ”.

Question: And the “body weight change (loss in weight) during efficacy study” value [4]?
Answer: Its value is “minimized loss in weight”.

Question: What does the source list for CNC(=O)c1ccccc1Sc1ccc2c(/C=C/c3ccccn3)nn(C(=O)N(CCOC(=O)[C@@H](N)CCC(=O)O)CCC(=O)N[C@H]3CCNC(=O)[C@H]([C@@H](C)O)NC(=O)[C@H](CCN)NC(=O)[C@H](CCN)NC(=O)C(CC(C)C)NC(=O)[C@@H](Cc4ccccc4)NC(=O)[C@H](CCN)NC3=O)c2c1 (stereo partly shown) [Example 7] (X3-[Dab][Dab][dF][ξL][Dab][Dab]T; lactam 1-C)?
Answer: Blood Plasma Conc. of released axitinib ([1]; T = 3 h): T = 3 h: 14.5 ng/mL; Kidney Tissue Conc. of released axitinib ([1]; T = 3 h): T = 3 h: 4280 ng/mL; Blood Plasma Conc. of released axitinib ([1]; T = 6 h): T = 6 h: BLQ; Kidney Tissue Conc. of released axitinib ([1]; T = 6 h): T = 6 h: 4860 ng/mL

Question: Which results are given for CNC(=O)c1ccccc1Sc1ccc2c(/C=C/c3ccccn3)nn(C(=O)N(CCNC(=O)CC[C@H](N)C(=O)O)CCC(=O)N[C@H](C(=O)N[C@@H](CCN)C(=O)N[C@H]3CCNC(=O)[C@H]([C@@H](C)O)NC(=O)[C@H](CCN)NC(=O)[C@H](CCN)NC(=O)[C@H](CC(C)C)NC(=O)[C@@H](Cc4ccccc4)NC(=O)[C@H](CCN)NC3=O)[C@@H](C)O)c2c1 [Example 9, reference compound] (X2-T[Dab][Dab][Dab][dF]L[Dab][Dab]T; lactam 3-C)?
Answer: Blood Plasma Conc. of released axitinib ([1]; T = 3 h): T = 3 h: 14.9 ng/mL; Kidney Tissue Conc. of released axitinib ([1]; T = 3 h): T = 3 h: 371.6 ng/mL; Blood Plasma Conc. of released axitinib ([1]; T = 6 h): T = 6 h: BLQ; Kidney Tissue Conc. of released axitinib ([1]; T = 6 h): T = 6 h: 28.8 ng/mL

Question: What does the source list for CNC(=O)c1ccccc1Sc1ccc2c(/C=C/c3ccccn3)n[nH]c2c1 [Axitinib, N-methyl-2-[[3-[(E)-2-pyridin-2-ylethenyl]-1H-indazol-6-yl]sulfanyl]benzamide, reference compound]?
Answer: Blood Plasma Conc. of axitinib ([1]; T = 3 h): T = 3 h: 397.3 ng/mL; Blood Plasma Conc. of axitinib ([1]; T = 6 h): T = 6 h: 75.6 ng/mL; Blood Plasma Conc. of axitinib ([1]; T = 12 h): T = 12 h: 11.4 ng/mL; Blood Plasma Conc. of axitinib ([1]; T = 24 h): T = 24 h: BLQ^d; incidence of hypertensive adverse effects [5]: 40-64%
